# Laboratory results from the nanobody polyreactivity screen of Harvey et al. (2022).
# Test: yeast display, Sf9 membrane polyspecificity reagent, FACS + sequencing; frameworks hold sequencing errors
# Outline: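 A synthetic nanobody library was expressed on Saccharomyces cerevisiae BJ5465 by galactose induction for 36–48 hours. The library was stained for 1 hour at 4 °C with 10% biotinylated, detergent-solubilized Sf9 membrane reagent and enriched with streptavidin microbeads before FACS. Low and high (top ~1%) gates were set on anti-HA fluorescence for expression and streptavidin fluorescence for reagent binding, and each polyreactivity label reflects the gate of origin.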
row,Sequence,polyreactivity (PSR sort gate)
1,QVQLVESGGGLFQAVGSLRLSCAASGSTFIPNAMGWYRQAPGKERELVADISYSGGTTYYADSVKGRFTISRDNAKKTVYLQMNSLKPEDTSVYYCAAVYYTSFYSWPPYDYWGQGTQVTVSS,low polyreactivity
2,QVQLVESGGGLVQAGGSLRLSCAASGFIFPAYTMGWYRQAPGKERELVAAITWSGGSTYYADSVKGRFTISRDNAKNTVYLQMKSLKPEDTAVYYCAAYVSRKYRKGPRFAYDYWGQGTQVTVSS,high polyreactivity
3,QVQLVESGGGLVQAGGSLRLSCAASGFIFARYAMGWYREAPGKERELLAAITARGGSTYYADSVKGRFTISRDNAKNTVYLQMNSLKPEDTAVYYCADVSGYSTGGYRNRYNYWGQGTHVTVSS,high polyreactivity
4,QVQLVESGGGLVQAGGSLRLSCAASGFIFLINAMGWYRQAPGKERELVAGITSGGGNTYYADSVKGRFTISRDNAKNTVYLQMYSLKPEDTAVFYCAARLFDYWGQGTQVTVSS,low polyreactivity
5,QVQLVESGGGLVQAGGSLRLSCAASGFILDTYGMGWYRQAPGKERELVAAISQSDVSTYYADSVKGRFTISRDNAKNTVYLQMNSLKPEDTAVYYCAADRGGLRWFWQVLYDYWGQGTQVTVSS,low polyreactivity
6,QVQLVESGGGLVQAGGSLRLSCAASGRIFTPYPMGWYRQAPGKERELVAVIRDGSTYYADSVKGRFTISRDNAKNSVYLQMNSLKPEDSAVYYCRYDIWVWWSGAYDYWGQGTQVTVSS,low polyreactivity
7,QVQLLESGGGLVQAGGSLRLSCAASGRIFVKYAMGWYRQAPGKERELVAAISKSGGSTYYADSVKGRFTISRDNAKNTVYLQMNSLKPEDTAVYYCAPRSRDQYSGSYRLDYWGQGTQVTVSS,low polyreactivity
8,QVQLVESGGGLVQAGGSLRLSCAASGYIFPYNAMGWYRQAPGKERELVATITWTGGSKYYADSVKGRFTISRDNAKNTVYLQMNSLKPEDTAVYDCADDLSIRYDHEYGYWGQGTQVTVSS,low polyreactivity
9,QVQLVESGGGLVQAGGSLRLSCAASGRIFGDYGMGWYRQAPGKERELVAAITDRGGPTYYADSVKGRFTISRDNAKNTVYLQRNSLKPEDTAVYYCNARQSDIFDYDYWGQGTQVTVSS,low polyreactivity
10,QVQLLESGGGLVQAGGSLRLSCAASGSTFRSYAMGWYRQATGKERELVAAISGRGGNTYYADSVKGRFTISRDNAKNTVYLQMNSLKPEDTAVYYCARKTVYYGSDYWGQGTQVTVSS,high polyreactivity
11,QDQLVDSGGGLVQAGGSLRLSCAASGSTFDANAMGWYRQAPGKERELVATISDGGSTNYADSVKGRFTISRDNAKNTVYLQMNSLKPEDTAVYYCAAVKLFLGLGYVYWGQGTQVTVSS,low polyreactivity
12,QVQLVESGGGLVQAGGSLRLSCAASGFTFYQYGMGWYRQAPGKERELVATITSGGRTNYADSVKGRFTISRDNAKNTVYLQMNSLKPEDTAVYYCNKLPYYPRFGRIGRYYYWGQGTQVTVSS,high polyreactivity
13,QVQLVESGGGLVQAGGSLRLSCAASGIIFYGYAMGWYRQAPGKERELVAAISRSGGSTYYADSVKGRFTISRDNAKNTVYLQMNSLKPEDTAVYYCAASGVTYDYWGQGTQVTVSS,high polyreactivity
14,QVQLVESAAGLVQAGGSLRLSCAASGSTFYRYEMGWYRQAPGKERELVATNTSGGSSTYYADSVKGRFTISRDNAKNTVYLQMNSLKPEDTAVYYCAKVYTYSGVNLSSISTPYGYWGQGTQVTVSS,high polyreactivity
15,QGQRVESGGGLVQAGGSLRLSCAASGFIFAHNAMGWYRPAPGTETEFVAAISANTGNTYYADSVKGRFTISRDNAKNTVYLQMNSLKPEDTAVYYCRSFYYWGQGTQVTVSS,high polyreactivity
16,QVQLVESGGALVQAGGSLRLSCAASGSIFSRNAMGWYRTAPGKERELVAGISTGGSTNYADSVKGRFTISRDNAKNTVYLQMTSLKPEDTAVYYCAAPLAYEGDYWGQGTQVTVSS,low polyreactivity
17,QVQLVESGGGLVQAGGSLRLTCAASGFIFVRNAMGWYRQAPGKERDLVAAISSRGGRTYYADSVKGRFTISRDNAKYTVYLQMNRLKPEDTAVYYCNADRDTQGDGYDYWGQGTQVTVSS,high polyreactivity
18,QVQLVESGGGLVQAGGSLRLSCAASGSTFTGNAMAWYRQAPGKERELVAAISRSGGSTFYADYVKGRFTISRDNAKNTVYLQMNSLKPEDTAVYYCATRYVVDMDYWGQGTQVTVSS,high polyreactivity
19,QVQLVESGGGLVQAGGSLRLSCAASGSIFYKNAMGWYRQAPGKERELVAAITYSGGSTYYADSVKGRFTISRDNAKNTVYLQMNSLKTEDTAVYYCAADIGVYGERREEEYDYWGQGTQVTVSS,low polyreactivity
20,QVQLQESGGGLVQAGGSLRLSCAASGNIFLSIFMGWYRQAPGKEREFVAGIGSGTNTNYADSVKGRFTISRDNAKNTVYLQMNSLKAEDTAGYYSAAGRYGLYYHGYWGQGTQVTVSS,high polyreactivity
21,QVQLVESGGGLVQAGGSLRLSCAASGRIFGYYAMGWSRQAPGKERELVATITFGGGSTYYADSVKGRFTISRDNAKNTVYFQMNSLKPEDTAVYYCAADSGYLGIYGDEYSWGQGTQVTVSS,low polyreactivity
22,QVQLQESGGGLVQAGGSLRLSCAASGTISQEDWMGWYRQAPGKEREFVAAIGLGSNTNYADSLKGRFTISRDNAKKTVYLQMNSLKPEDTAVYYCAVSVWQYSDHVYRGQGTQVTVSS,low polyreactivity

row,Sequence,polyreactivity (PSR sort gate)
1,QVQLVESGGGLVQAGGSLRLSCAASGSIFKSYAMGWYRQAPGKERELVAAITWRSGRTYYADSVKGRFTISRDNAKNTVYLQMNSLKPEDTAVYYCAADDTSYYIYSYDYWGQGTQVTVSS,low polyreactivity
2,QVQHVESGGGLVQAGGSLRLSCAASGSIFVRNAMGWYRQAPGKEREFVAAISRSGDSTNYADSVKGRFTISRDNAKNTVYLQMNSLKPEETAVYYCAVGYRYLKWVDYWGQGTQVTVSS,high polyreactivity
3,QVQLVESGGGLVQAGGSLRLSCAASGSTFFLYAMGCYRQAPGNERELVAAISWRGASTYYADSVNGSFTISRDNAKNSVYLQMNSLKPDDTAVYYCAADLLPLYDDWGQGTQVTVSS,high polyreactivity
4,QVQLGESGGGLVQAGGSLRLSCAASGSTFSCYAMGWYRQAPGKEREFVAAISWSGGSTYYADSVKGRFTISRDTAKNTVYLQMNSLKPEDTEVYYCAATRRGPYWWFGYDYWGQGTQVTVSS,high polyreactivity
5,QVQLVESGVGLVQAGGRLRLSCAASGSIFASSAMGWYRKAPGKERELVAVINSYDRTNYADSVKGRFTISRDNAKNTVYLKMNSLKPEDTAVYYCNADAIRIIPAYDYWGQGTQVTVSS,low polyreactivity
6,QVQLVESGGGLVQAGGSLRLSCAASGSSKLRLWDGIDRRLGQKGSWLPLFVLVVLRNYADSVKGRFTISSDNAKNTVYLQMNSLKPEDTAVYYCAATPIGSGGWGDYWGQGTQVTVSS,low polyreactivity
7,QVQLVESGGGLVQAGGSLRLSCAASGRILDYNAMGWYRPAPGKERELVAAITRRGGSTYYADSVKGRFTISRDNAKNTVYLQMNSLKPEDTAVYYCNARWSTTAHTRFGYWGQGTQVTVSS,low polyreactivity
8,QVQLQESGGGLVQASGSLRLSCAASGNIFPDYLMGWYRLAPGKEREFVANITGGSTTNYADSVKGRFTISRDNATNTVYLQMNSLKPEDTAVYYCEVNFGTVVLYLYWGQGTQVTVSS,high polyreactivity
9,QVQLVESGGGLVQAGGSLRLSCAASGSIFYYYAMGWYRQAPGKERELVASITRGGSTYYADSVKGRFTISRDNAKNTVYLQMNSLKPEDTAVYYCNADLGAYVPFDYWGQGTQVTVSS,high polyreactivity
10,QVQLVESGGGLVQAGGSLRLSCAASGRIFGRNTMGWYRQAPGKERELVAAITGTGTTYADSVKGRFTISRDNAKNTVYLQMNSLKPEDTAVYYCAARRSVYTWVSRYNYWGQGTQVTVSS,high polyreactivity
11,QVQLVESGGGILQAGGSLRLSCAASGFILSPNTMAWSRQAPGKERELVAAISSDVSTYADSVKGRFTISRDNAKNTVYLQINSLKPEDTAVYYCNADDFGYASYEYWGQATQVTVSS,low polyreactivity
12,QVQLVESGGGLVQAGGSLRLSCAASGRIFSDNAMGWYREAPGKERELVAAITWSSGSTYADSVKGRFTISRDNAKNTVYLQMNSLKPEDTAVYYCNVSPGYEPLDHELDYWGQGTQVTVSS,low polyreactivity
13,QVQLVESGGGLVQAGGSLRLSCAASGITLYNYAMGWYRQAPGKERELVAAISLSGGRTYYADSVKGRFTISRDNAKNTVYLQMNSLKPEDTAVYYCAADWLNSDPYNYWGQGTQVTVSS,low polyreactivity
14,QVQLVESGGGLVQAGGSLRLSCAASGSTSTDYAMGWYRQAPGKERELVAAISYGGGSTYYADSVKGRFTISRDNAKNTVYLQMNSLKPEDTAVYYCAAVARFPKYRYYSWGQGTQVTVSS,high polyreactivity
15,QVQIVESGGGLFQAGGSLRLSCAASGITFVFYAKRRYRQAPGKERELVAAISSSGGSTYYADSVKVRFTISRDYAKNSVYLQMKSLKPDDTAVYYCNAIVFSYQRAVRYDYWGQGTQVTVSS,high polyreactivity
16,QVQLVESGGGLVQAGGSLRLSCAASGRTIDSYAMGWYRQAPGKERELVAAISKSGGRTYYADSVKGRFTISRDNAKNTVYLQMNSLKPEDTAVYYCNAQRVAYWRVAYDYWGQGTQVTVSS,high polyreactivity
17,QVQLVESGGGLVQAGGSLRLSCAASGSYTMGWYRQAPGKERELVAAISKSGGSTYYADSVKGRFTISRDNAKNTVYLQMNRLKPEDTAVYYCAAVGWWGTYDYWGQGTQVTVSS,high polyreactivity
18,QDQLVESRGGLVQAGGSLRLSCAAYGRTFIPYAMGWNSQATGKERELVAAITVRGSSTYYADSVKGRFTISRDNAKNTVYFQMNSLKPEDTAIYYCATDRRYRAFYYWGQGTQVTVSS,high polyreactivity
19,QVQLVESGGGLVQAGGSLRLSCAASGLIFGYNAMGWYRQAPGKEREFVAGISVIDGRTYYADSVKGRFTISRDNAKNTVYLQMNSLKPEDTAVYYCAADRWYKYYFLTYGYWGQGTQVTVSS,low polyreactivity
20,QVQLVESGGGLVQAGGSLRLSCAASGSIFSVYAMGWYRQAPGKERELVAVIWRGGSTNYADSVKGRFTISRDNAKNTVYLQMNSLKPEVTALYYCNARTFYRKFWYQFVSSYGYDYWGQGTQVTVSS,low polyreactivity
21,QVQLVESGGGLVQAGGSLRLSCAASGRTFRGNAMGWYRQAPAKDRELVGAGGSTYYADSVKGRFTISRDNAKNTVYLQMNSLKPEASAVYYCGAALGFSRYSWFGYGYWGQGTQVTVSS,low polyreactivity
